Assay results: the DeepSol protein solubility set

Test: soluble on expression in E. coli; label from the status in PepcDB or PDB records

Sequence	soluble on expression in E. coli
MGSKKLKRVGLSQELCDRLSRHQILTCQDFLCLSPLELMKVTGLSYRGVHELLCMVSRACAPKMQTAYGIKAQRSADFSPAFLSTTLSALDEALHGGVACGSLTEITGPPGCGKTQFCIMMSILATLPTNMGGLEGAVVYIDTESAFSAERLVEIAESRFPRYFNTEEKLLLTSSKVHLYRELTCDEVLQRIESLEEEIISKGIKLVILDSVASVVRKEFDAQLQGNLKERNKFLAREASSLKYLAEEFSIPVILTNQITTHLSGALASQADLVSPADDLSLSEGTSGSSCVIAALGNTWSHSVNTRLILQYLDSERRQILIAKSPLAPFTSFVYTIKEEGLVLQAYGNS	soluble
MGSDKIHHHHHHMNFKRLIIYEAFARAYPGEKGKKFDSLIKDLERLKGMGINTVWLMPIHPTGIEGRKGTLGSPYAIRDYYEIDPLIGTKDDFKRFVKRAHELNMYVLMDMVLNHAAADNVLVREHPEWFLRDEKGNPTRKVPDWTDIVDFDYSNGELRKYMINMMKYWVEEFDVDGFRCDVAGLVPLDFWLQARKELDPVKRLIWLSETHDPYMYQAFDITYDYDGYYKFRDFIEGRGSLREYVDFLRMQDHMYPRGYIKMRFLENHDQPRIAKFIEEDSLVHWIAFLFTFKGVPLVHNGQEYGLKEDVDIFNEYTLPFPMEENRISILHRKLAHYRYGTSVFSEGEMLFVKNDQPEKVISYLWRYENRYILCMLNPLLENTKVTLDFSGIWESACIHSKNVFNDEIVRVPVKNSRATVEIGKEPLILSFVLY	not soluble
SKGWGWLALLLGVLLGTAWARRSQDLHCGACRALVDELEWEIARVDPKKTIQMGSFRINPDGSQSVVEVPYARSEAHLTELLEEVCDRMKEYGEQIDPSTHRKNYVRVVSRNGESSELDLQGIRIDSDISGTLKFACESIVEEYEDELIEFFSREADNVKDKLCSKRTDLCDHALHRSHDEL	soluble
KSITITTPYFVPSEILLHTLRTTAHRGVEVKLILPKKNDSLMVNWASKSFFETLLKAGVQIHEFNGGLLHTKSVVIDESHCIIGTVNLDMRSFWLNFEVSLIVDDPEFTKQLSWVLDGYLEQSTQVCFDTWRHRSWGNRFTERFFSMFSPLL	not soluble
MDHVHKSTTTDEDERNSGRAIDRHNPIIKDGRRSFADDFIKLPTSAEDGEMSNKKLEIYKGRRSITGRRSTGGGGGGGAAALLKLITNDIGLARKSFSCVARPACDLIKTPVGSTRYLLGSDPDSITGSVDQDPAKTVEAEAPAGEDKTLTEKKTTCGDTDQVSCFVVSIMSGINVNKW	not soluble
PVYMVYVSQDRLTPSAKHAVAKAITDAHRGLTGTQHFLAQVNFNEQPAGNVFLGGVQQGGDTIFVHGLHREGRSADLKGQLAQRIVDDVSVAAEIDRKHIWVYFGEMPAQQMVEYGRFLPQPGHEGEWFDNLSSDERAFMETNVDVSRT	soluble
SLTASIVYLNNVRLETGFAKDHHELTYTKTARYTLAIQEGKIQAIIPQNQVTEKQQGTDLNGQLAIPAFQESHNHLDKTYLSLGWRASQPVKNLKERLADEASELKLLAPSTEQRATAMIEKLIGYGASYIRTHVNIDPYVELENFWGVKRALEKYAHVIDYDIVVFPQHGLLKNPQTVLLMREALKNGGTMVGGLDPAGIDYAIEESLETIFDLAEEFQVGIDIHLHDTGEVGVYTIDKFLDILEERKFTQRTAISHAFALLDVRPAEKEKLYQRLATHQTAIMSTIPYDPRYLLPPIDVLRQAGVSVHLGSDGFFDSWSSNVSGDLFEKLRNFCEMTGKITEEQLTQAYVHGCGKVAPFSFEEERLWFTEGDEANFIFTEAASTAEVIARKPQKRQIMLKGQWV	soluble
MSLNLAKRILQGEQLTKETVLKIYEDTNIDTLDLLNEAYILRKHYFGKKVKLNMILNAKSGICPENCGYCGQSRDIKQKQRYALIPEEQIIDGAKVAHDNHIGTYCIVMSGRGPSDKEVDHISNTVRTIKSQHPQLKICACLGLTNDEQAKKLKSAGVDRYNHNINTSENYHDNVVTTHSYKDRTDTIELMKANNISPCSGVICGMGESNQDIVDMAFALKEMDADSIPINFLHPIKGTKFGSMDDLTPMKCLRIVALFRLINPTKEIRIAGGREVNLRSLQPLALKAANSIFVGDYLITGGQPNQLDYDMINDLGFEIDYDTCENKENKNDVSRANEGHHHHHH	soluble
MVSDAAERNLAFALSELDRITAQLKLPRHVEEEAARLYREAVRKGLIRGRSIESVMAACVYAACRLLKVPRTLDEIADIARVDKKEIGRSYRFIARNLNLTPKKLFVKPTDYVNKFADELGLSEKVRRRAIEILDEAYKRGLTSGKSPAGLVAAALYIASLLEGEKRTQREVAEVARVTEVTVRNRYKELVEKLKIKVPIA	soluble
